# Test results reported in patent US20200231691A1 (Hoffmann-La Roche, published 2020).
# T1: murine EpCAM (murine, UniProt Q99JW5 24-315)
# T1 construct: Stably expressed on CT26muEpCAM cl25 cells; also called muEpCAM; CT26muEpCAM cells
# T1 sequence: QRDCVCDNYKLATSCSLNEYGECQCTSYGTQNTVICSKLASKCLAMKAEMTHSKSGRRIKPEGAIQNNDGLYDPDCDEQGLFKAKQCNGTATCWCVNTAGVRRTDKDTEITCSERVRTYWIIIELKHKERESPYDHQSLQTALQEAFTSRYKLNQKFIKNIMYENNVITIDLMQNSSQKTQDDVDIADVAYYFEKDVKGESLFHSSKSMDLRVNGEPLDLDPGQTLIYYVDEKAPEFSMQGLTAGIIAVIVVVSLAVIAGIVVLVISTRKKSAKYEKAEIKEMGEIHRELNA
# T2: murine OX40 (murine, UniProt P47741 20-272)
# T2 construct: also called muOX40
# T2 sequence: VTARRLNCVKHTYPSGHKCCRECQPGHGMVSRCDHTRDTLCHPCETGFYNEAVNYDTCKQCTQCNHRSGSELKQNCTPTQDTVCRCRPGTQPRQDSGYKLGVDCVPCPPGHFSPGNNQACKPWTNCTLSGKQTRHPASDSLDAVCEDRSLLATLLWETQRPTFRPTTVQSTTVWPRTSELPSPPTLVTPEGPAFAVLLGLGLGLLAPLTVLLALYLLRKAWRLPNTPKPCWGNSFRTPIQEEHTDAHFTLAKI
# T3: murine FAP (murine, UniProt P97321 1-761)
# T3 construct: whole, on cells; CT26muFAP served as the muEpCAM-negative specificity control cell line; also called muFAP; CT26muFAP cells
# T3 sequence (looked up): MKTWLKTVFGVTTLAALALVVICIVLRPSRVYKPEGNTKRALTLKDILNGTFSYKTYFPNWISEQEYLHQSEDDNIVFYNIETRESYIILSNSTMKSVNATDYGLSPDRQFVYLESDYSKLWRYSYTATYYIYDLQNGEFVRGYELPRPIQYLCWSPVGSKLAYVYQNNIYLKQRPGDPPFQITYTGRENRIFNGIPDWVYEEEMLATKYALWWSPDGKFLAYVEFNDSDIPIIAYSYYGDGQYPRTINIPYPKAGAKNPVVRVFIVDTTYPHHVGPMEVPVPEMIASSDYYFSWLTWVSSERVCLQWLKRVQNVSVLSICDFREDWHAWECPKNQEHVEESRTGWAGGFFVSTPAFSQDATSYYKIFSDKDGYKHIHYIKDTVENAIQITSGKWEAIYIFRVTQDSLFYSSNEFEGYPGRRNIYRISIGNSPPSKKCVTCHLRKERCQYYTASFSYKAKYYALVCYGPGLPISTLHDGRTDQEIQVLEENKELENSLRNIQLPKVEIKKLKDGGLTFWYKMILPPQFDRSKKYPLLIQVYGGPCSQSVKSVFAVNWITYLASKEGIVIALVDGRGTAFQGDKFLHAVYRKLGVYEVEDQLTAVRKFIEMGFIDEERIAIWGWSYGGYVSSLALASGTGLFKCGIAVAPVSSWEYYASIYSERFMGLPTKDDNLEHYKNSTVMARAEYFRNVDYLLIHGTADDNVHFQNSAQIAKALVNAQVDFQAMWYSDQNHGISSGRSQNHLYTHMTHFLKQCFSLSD
# B1: bispecific, tetravalent anti-murine OX40, monovalent anti-murine EpCAM 4+1 molecule (muOX40 OX86/muEpCAM G8.8 DAPG 4+1) (bispecific antibody, mouse IgG1, kappa)
# heavy 1: QVQLKESGPGLVQPSQTLSLTCTVSGFSLTGYNLHWVRQPPGKGLEWMGRMRYDGDTYYNSVLKSRLSISRDTSKNQVFLKMNSLQTDDTAIYYCTRDGRGDSFDYWGQGVMVTVSSAKTTPPSVYPLAPGSAAQTNSMVTLGCLVKGYFPEPVTVTWNSGSLSSGVHTFPAVLQSDLYTLSSSVTVPSSTWPSQTVTCNVAHPASSTKVDKKIVPRDCGGGGSGGGGSQVQLKESGPGLVQPSQTLSLTCTVSGFSLTGYNLHWVRQPPGKGLEWMGRMRYDGDTYYNSVLKSRLSISRDTSKNQVFLKMNSLQTDDTAIYYCTRDGRGDSFDYWGQGVMVTVSSAKTTPPSVYPLAPGSAAQTNSMVTLGCLVKGYFPEPVTVTWNSGSLSSGVHTFPAVLQSDLYTLSSSVTVPSSTWPSQTVTCNVAHPASSTKVDKKIVPRDCGCKPCICTVPEVSSVFIFPPKPKDVLTITLTPKVTCVVVAISKDDPEVQFSWFVDDVEVHTAQTKPREEQINSTFRSVSELPIMHQDWLNGKEFKCRVNSAAFGAPIEKTISKTKGRPKAPQVYTIPPPKEQMAKDKVSLTCMITNFFPEDITVEWQWNGQPAENYDNTQPIMDTDGSYFVYSDLNVQKSNWEAGNTFTCSVLHEGLHNHHTEKSLSHSPGGGGGSGGGGSGGGGSGGGGSDIQMTQSPASLSASLGETVSIECLASEGISNDLAWYQQKSGKSPQLLIYATSRLQDGVPSRFSGSGSGTRYSLKISGMQPEDEADYFCQQSYKYPWTFGGGTKLELK
# heavy 2: QVQLKESGPGLVQPSQTLSLTCTVSGFSLTGYNLHWVRQPPGKGLEWMGRMRYDGDTYYNSVLKSRLSISRDTSKNQVFLKMNSLQTDDTAIYYCTRDGRGDSFDYWGQGVMVTVSSAKTTPPSVYPLAPGSAAQTNSMVTLGCLVKGYFPEPVTVTWNSGSLSSGVHTFPAVLQSDLYTLSSSVTVPSSTWPSQTVTCNVAHPASSTKVDKKIVPRDCGGGGSGGGGSQVQLKESGPGLVQPSQTLSLTCTVSGFSLTGYNLHWVRQPPGKGLEWMGRMRYDGDTYYNSVLKSRLSISRDTSKNQVFLKMNSLQTDDTAIYYCTRDGRGDSFDYWGQGVMVTVSSAKTTPPSVYPLAPGSAAQTNSMVTLGCLVKGYFPEPVTVTWNSGSLSSGVHTFPAVLQSDLYTLSSSVTVPSSTWPSQTVTCNVAHPASSTKVDKKIVPRDCGCKPCICTVPEVSSVFIFPPKPKDVLTITLTPKVTCVVVAISKDDPEVQFSWFVDDVEVHTAQTKPREEQINSTFRSVSELPIMHQDWLNGKEFKCRVNSAAFGAPIEKTISKTKGRPKAPQVYTIPPPKKQMAKDKVSLTCMITNFFPEDITVEWQWNGQPAENYKNTQPIMKTDGSYFVYSKLNVQKSNWEAGNTFTCSVLHEGLHNHHTEKSLSHSPGGGGGSGGGGSGGGGSGGGGSEVQLAESGGGLVQPGRSMKLSCAASGFTFSNFPMAWVRQAPTKGLEWVATISTSGGSTYYRDSVKGRFTISRDNAKSTLYLQMNSLRSEDTATYYCTRTLYILRVFYFDYWGQGVMVTVSS
# light: DIVMTQGALPNPVPSGESASITCRSSQSLVYKDGQTYLNWFLQRPGQSPQLLTYWMSTRASGVSDRFSGSGSGTYFTLKISRVRAEDAGVYYCQQVREYPFTFGSGTKLEIKRADAAPTVSIFPPSSEQLTSGGASVVCFLNNFYPKDINVKWKIDGSERQNGVLNSWTDQDSKDSTYSMSSTLTLTKDEYERHNSYTCEATHKTSTSPIVKSFNRNEC
# notes: muIgG1 DAPG with DDKK heterodimerisation; also called 4+1 muEpCAM; 4 + 1 anti-muOX40, anti-muEpCAM
# Key:
# murine EpCAM = target: T1, murine EpCAM; assay: flow cytometry, muEpCAM+ CT26muEpCAM cells
# Protocol: (§1) The binding to cell surface murine EpCAM was analysed using mouse EpCAM-positive CT26muEpCAM c125 cells, which stably expresses murine EpCAM. The specificity of binding was analysed by determination of binding to muEpCAM-negative cell line CT26muFAP, which stably expresses murine FAP.
# (§2) For analysis of binding of the antigen binding molecules, 0.5×10⁵ CT26muEpCAM or 0.5×10⁵ CT26muFAP cells were added to wells of round-bottomed suspension cell 96-well plates (greiner bio-one, cellstar, Cat. No. 650185). For discrimination of live and dead cells, samples were stained with Zombie Aqua Viability Dye (Biolegend, Cat. No 423102) in PBS for 10 minutes at room temperature. Cells were then washed once with FACS buffer and subsequently stained for 90 minutes at 4° C. in the dark in 50 μL/well 4° C.
# (§3) Plates were finally resuspended in 85 μL/well FACS-buffer and acquired the same day using 4-laser LSR-II cytometer (BD Bioscience with DIVA software).
# murine OX40 [1] = target: T2, murine OX40; assay: flow cytometry, activated murine OX40+ CD4+ T cells
# Protocol: (§4) For labeling cells were harvested, washed with pre-warmed (37° C.) DPBS and adjusted to a cell density of 1×10⁷ cells/mL in DPBS. eFluor670 cell proliferation dye (eBioscience, Cat.-No. 65-0840-85) was added to the suspension of naïve splenocytes at a final concentration of 2.5 μM and a final cell density of 0.5×10⁷ cells/mL in DPBS. Cells were then incubated for 10 min at room temperature in the dark. To stop labeling reaction, 4 mL heat inactivated FBS were added and cells were washed three times with T cell medium. A mixture of 1×10⁵ resting eFluor670 labeled splenocytes and 1×10⁵ unlabeled activated splenocytes were then added to wells of round-bottomed suspension 96-well plates (Greiner bio-one, cellstar, Cat. No. 650185).
# (§5) For discrimination between live and dead cells, samples were stained with Zombie Aqua Viability Dye (Biolegend, Cat. No. 423102) in DPBS for 10 minutes at room temperature. Cells were then washed once with FACS buffer and subsequently stained for 90 minutes at 4° C. in the dark in 50 μL/well 4° C. […] After washing three times with excess FACS buffer, cells were stained for 30 minutes at 4° C. in the dark in 25 μL/well 4° C.
# (§6) Plates were finally resuspended in 85 μL/well FACS buffer and acquired the same day using 4-laser LSR-II cytometer (BD Bioscience with DIVA software).
# murine OX40 [2] = target: T2, murine OX40; assay: flow cytometry, activated murine OX40+ CD8+ T cells
# Protocol: as §4, §5, §6
# murine FAP = target: T3, murine FAP; assay: flow cytometry on CT26muFAP cells, which stably express murine FAP
# Protocol: as §1, §2, §3
binder,measurement,setting,value
B1,EC50,murine EpCAM,82.5 nM
same,EC50,murine OX40 [1],1.47 nM
same,EC50,murine OX40 [2],0.82 nM
same,binding result,murine FAP,no binding
